Laboratory results published in the RNAGym collection of RNA variant scans (doi:10.7554/elife.80360).

B1: Hairpin Ribozyme (parent)
chain: GUCCUCUUUCACGUGCGCGUGAAAGAGAGAAGUGAACCAGAGAAACACACGUUGUGGUAUAUUACCUGGUA

Variants of: B1
Assay: self-cleavage, relative activity (ratio to wild type); higher = more cleavage; co-transcriptional

Variant | self-cleavage
U58G U62A | 0.232
U58G U62C | 0.187
G57C U70C | 0.216
G57C U70A | 0.184
G56A G69C | 0.108
U53C U58C | 1.26
U58C G68U | 0.169
U58C G68A | 0.301
U55G U70A | 0.351
U55G U70G | 0.17
A59G U70C | 0.192
A59G U70G | 0.161
G54A U63C | 0.216
A59U A61G | 0.166
G57U C65U | 0.25
G57U C65A | 0.271
U58C U70G | 0.759
U58C U70A | 0.897
G56A U67A | 0.197
U53G U63G | 0.156
U55A A61G | 0.156
G54C U67C | 0.109
U52G A71C | 1.32
U52G A71G | 0.654

Variant | self-cleavage
G54U U67A | 0.207
G57C C66U | 0.101
G56A U63A | 0.133
G57A G68A | 0.119
U52C C66G | 0.244
U52C U58G | 0.606
U52C U63G | 0.341
U52G U70C | 0.605
G57U U62G | 0.176
U55C A71C | 0.596
U55C A71U | 0.16
U53C C65U | 0.274
G56A G57A | 0.136
G56A G57C | 0.128
A59C A71G | 0.119
G54U G69A | 0.122
G54U C65G | 0.145
G54U C65A | 0.561
U58A U70G | 0.493
U58A U70A | 0.588
U58A U70C | 0.728
G56A A59U | 0.125
G56C U58G | 0.234
G56U C65A | 0.203

Variant | self-cleavage
G56U C65U | 0.276
G56U C65G | 0.104
U53G U58A | 0.394
U55C U58C | 0.475
U55C U58G | 0.175
G57U A71U | 0.223
G57C U62G | 0.155
U58A G69C | 0.246
U58A G69A | 0.201
U58C A64C | 0.178
U58C A64G | 0.502
U58C C66U | 0.546
U58C C66A | 0.201
U53G G54U | 0.49
U53G G54C | 0.551
U55C G56U | 0.321
G54U A64G | 0.4
G54U A64C | 0.128
G57C C65A | 0.0756
U52C G56U | 0.149
U52C G56C | 0.165
G57A U70G | 0.111
A59G U63G | 0.0571
A59G U63A | 0.262

Variant | self-cleavage
U55A G69A | 0.172
U55A G69U | 0.146
G57C A59C | 0.183
U53G U55C | 0.369
U53G U55A | 0.269
U52G G69C | 0.478
G57A U60C | 0.205
U53A G54A | 0.68
G54C U60G | 0.27
U55G U67C | 0.181
U53G U62C | 0.281
U52C G69U | 0.21
G54C G68A | 0.187
U58G U63A | 0.149
U52G G57A | 0.181
U52G G57C | 0.216
U52G G57U | 0.232
G54C A59C | 0.195
U58C U62C | 0.369
U58C U62G | 0.242
G56U A61G | 0.178
G56U A61C | 0.134
G57C G69U | 0.0905
G54A G57U | 0.27

Variant | self-cleavage
G54A G57A | 0.182
G54C | 0.433
G54A | 0.583
G54U | 0.626
G54C A61C | 0.183
U52G C65U | 0.302
U52C U55C | 0.536
U52C U55A | 0.318
U53C U70A | 1.09
G54C U63G | 0.119
A59U A71C | 0.153
U55C U70A | 0.143
U55C U70C | 0.195
G56U U63G | 0.0375
G56C G68U | 0.173
G54A G69U | 0.143
G54A G69C | 0.177
U52C U53C | 1.07
U52C U53G | 1
U58G A61U | 0.0693
U55A C66A | 0.188
U55A C65G | 0.19
G54C U62A | 0.186
G54C U62C | 0.108

Variant | self-cleavage
U52C U67C | 0.274
U58C U63A | 0.212
U58C U63G | 0.27
U52G U58A | 0.452
U52G U58C | 0.707
G57C U63C | 0.272
G54A U60G | 0.204
U55C A61C | 0.0408
G56U U70G | 0.0481
U58A C66A | 0.18
U58A U62G | 0.296
U58C U60A | 0.845
U58C U60C | 1.19
U58G C65G | 0.146
G56C U60A | 0.106
G56C U60C | 0.156
U53A U62G | 0.146
U53A U62A | 0.266
G54U U55G | 0.399
G54U U55C | 0.18
U52G U53A | 0.857
U52G U53G | 1.39
G54U U63A | 0.267
G54U U63G | 0.159

Variant | self-cleavage
G56U U58G | 0.0453
U55C A59U | 0.239
U53C U60G | 0.557
U53C U60A | 0.635
G56C U67A | 0.205
G56C U67G | 0.203
U53A A59C | 0.0694
G54U U70A | 0.657
G57A C65U | 0.231
G56U A64U | 0.173
G56C G57C | 0.173
G56C G57U | 0.153
A59G U60G | 0.311
A59G U60A | 0.164
A59G U60C | 0.238
U58G U70A | 0.849
U55G A64C | 0.153
U55G A64U | 0.158
G56A A61U | 0.166
U58G U67A | 0.181
U58G U67C | 0.0792
G56A U62G | 0.293
G57A C66A | 0.215
